In patent US20140314784A1:

Key:
[1] = target: KO_1st loop; experiment: flow cytometry, CHO cells transiently transfected with the construct, 6C7 at 0.1 µg/ml, dot plot SSC-A against PE-A
[2] = target: KO_3rd loop; experiment: as above
[3] = target: KO_N-term; experiment: as above
[4] = target: KO_1st loop; experiment: flow cytometry, CHO cells transiently transfected with the construct, 6C7 at 0.05 µg/ml, dot plot SSC-A against PE-A
[5] = target: KO_3rd loop; experiment: as above
[6] = target: KO_N-term; experiment: as above

number in the positive gate (percent of cells) [1]: 50.1
number in the positive gate (percent of cells) [2]: 52.8
number in the positive gate (percent of cells) [3]: 52.8
number in the positive gate (percent of cells) [4]: 45.2
number in the positive gate (percent of cells) [5]: 47
number in the positive gate (percent of cells) [6]: 49.2
B1: 6C7 (antibody, V domains shown)
VH: QVQLVESGGGVVQPGRSLRLSCAASGFTFSNYVMHWVRQAPGKGLEWVAVIWYDGSNKYYADSVKGRFTISRDNSKNTLSLQMNSLRAEDTAVYYCERGEGYYGSGSRYRGYYYGMDVWGQGTTVTVSS
VL: DIQMTQSPSSLSASVGDRVTITCRASQGIRTDLGWYQQKPGKAPKRLIYAASSLQSGVPSRFSGSGSGTEFTLTISSLQPEDFATYYCLQHNSYPRTFGQGTKVEIK
